Test results from patent US20250361317A1 (Janssen / Centocor, published 2025).

What was measured:
[1] = biological target: T1, human EMR2 (ADGRE2, CD312) on cells (human, UniProt Q9UHX3 24-823); experiment: flow cytometry, median AF647 of live cells, OCI-AML5 WT cells, 1 hour at 37 C
T1 construct: also called huEMR2 full length; Adhesion G protein-coupled receptor E2
T1 sequence: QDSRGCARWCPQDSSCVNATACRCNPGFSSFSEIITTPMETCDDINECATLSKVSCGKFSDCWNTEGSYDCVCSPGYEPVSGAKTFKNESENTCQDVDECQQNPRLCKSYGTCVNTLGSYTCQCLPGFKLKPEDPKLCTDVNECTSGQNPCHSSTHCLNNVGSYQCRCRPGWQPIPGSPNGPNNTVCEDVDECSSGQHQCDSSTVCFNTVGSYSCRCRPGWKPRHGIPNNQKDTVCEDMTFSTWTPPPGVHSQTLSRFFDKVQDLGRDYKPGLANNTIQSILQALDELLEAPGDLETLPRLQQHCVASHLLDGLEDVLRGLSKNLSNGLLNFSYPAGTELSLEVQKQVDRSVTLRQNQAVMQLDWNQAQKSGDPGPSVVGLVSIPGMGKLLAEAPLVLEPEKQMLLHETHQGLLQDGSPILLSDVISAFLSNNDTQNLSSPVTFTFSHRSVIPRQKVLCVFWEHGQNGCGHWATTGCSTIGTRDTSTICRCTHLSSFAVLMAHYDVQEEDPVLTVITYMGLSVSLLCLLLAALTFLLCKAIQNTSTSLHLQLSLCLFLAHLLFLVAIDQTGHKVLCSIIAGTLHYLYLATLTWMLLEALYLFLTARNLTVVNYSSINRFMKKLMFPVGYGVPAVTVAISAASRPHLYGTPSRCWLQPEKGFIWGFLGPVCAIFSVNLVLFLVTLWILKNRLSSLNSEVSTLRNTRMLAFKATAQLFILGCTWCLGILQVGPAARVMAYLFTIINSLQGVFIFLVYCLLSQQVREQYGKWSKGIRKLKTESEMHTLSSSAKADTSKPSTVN

[2] = biological target: T2, T-cell receptor with TRBV19 (Vβ17) beta chain on human T cells (human); experiment: flow cytometry, % TRBV19+ T cells of live human pan-T cells, 1 hour at 37 C
T2 construct: whole, on cells; also called Vb17; TRBV19+ T cells
T2 sequence (A0A075B6N1 22-114): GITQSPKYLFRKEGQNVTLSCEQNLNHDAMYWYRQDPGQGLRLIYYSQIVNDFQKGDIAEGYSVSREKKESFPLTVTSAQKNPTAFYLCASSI

[3] = biological target: T1, human EMR2 (ADGRE2, CD312) on cells; experiment: flow cytometry, median AF647 of live cells, MOLM 13 cells, 1 hour at 37 C
[4] = biological target: T3, EMR2W4, huEMR2 GAIN domain + GPS, D261-T540, with C-terminal Avi/6x His tag (human); experiment: SPR, row 'SPR (KD) / EMR2' of the Forced Degradation table; stress condition of the KD and EMR2 construct not named on the sheet
T3 construct: also called Human EMR2 GAIN domain protein
T3 chain: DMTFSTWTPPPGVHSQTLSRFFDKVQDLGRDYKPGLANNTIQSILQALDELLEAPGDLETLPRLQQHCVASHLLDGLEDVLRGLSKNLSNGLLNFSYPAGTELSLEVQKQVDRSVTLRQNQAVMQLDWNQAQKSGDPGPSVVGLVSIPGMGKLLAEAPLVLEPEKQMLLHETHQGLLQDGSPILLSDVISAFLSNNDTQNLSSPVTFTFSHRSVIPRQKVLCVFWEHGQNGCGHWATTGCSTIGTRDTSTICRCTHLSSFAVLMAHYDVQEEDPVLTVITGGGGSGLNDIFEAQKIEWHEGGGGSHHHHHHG

B1: EMVBB6 (bispecific antibody, human IgG1, lambda, L234A L235A)
heavy chain 1 (Vb17 arm, B17B852-G34R-LH-spFv fused to Fc): DIQMTQSPSSLSASVGDRVTITCRSSQSLVHSNRNTYLHWYQQKPGCAPKLLIYKVSNRFSGVPSRFSGSGSGTDFTLTISSLQPEDFATYYCSQSTHVPFTFGQGTKLEIKGGGSGGSGGCPPCGGSGGQVQLQESGPGLVKPSETLSLTCTVSGYSITSGYFWNWIRQFPGKGLEWMGYISYDGSNNYNPSLKSRITISRDTSKNQFSLKLSSVTAADTAVYYCASPSPGTGYAVDYWGCGTTVTVSSEPKSSDKTHTCPPCPAPEAAGGPSVFLFPPKPKDTLMISRTPEVTCVVVSVSHEDPEVKFNWYVDGVEVHNAKTKPREEQYNSTYRVVSVLTVLHQDWLNGKEYKCKVSNKALPAPIEKTISKAKGQPREPQVYTLPPSREEMTKNQVSLWCLVKGFYPSDIAVEWESNGQPENNYKTTPPVLDSDGSFFLYSKLTVDKSRWQQGNVFSCSVMHEALHNHYTQKSLSLSPGK
heavy chain 2 (EMR2 arm, EMR2B361 Fab): EVQLVQSGGGLVKPGGSLRLSCVASGFIFRSYSMNWVRQAPGKGLEWVSSISSSSSYIYYADSVKGRFTISRDNAKNSLYLQMDSLRAEDTAVYYCARREYGGPFDYWGQGTLVTVSSASTKGPSVFPLAPSSKSTSGGTAALGCLVKDYFPEPVTVSWNSGALTSGVHTFPAVLQSSGLYSLSSVVTVPSSSLGTQTYICNVNHKPSNTKVDKKVEPKSCDKTHTCPPCPAPEAAGGPSVFLFPPKPKDTLMISRTPEVTCVVVSVSHEDPEVKFNWYVDGVEVHNAKTKPREEQYNSTYRVVSVLTVLHQDWLNGKEYKCKVSNKALPAPIEKTISKAKGQPREPQVYTLPPSREEMTKNQVSLSCAVKGFYPSDIAVEWESNGQPENNYKTTPPVLDSDGSFFLVSKLTVDKSRWQQGNVFSCSVMHEALHNRFTQKSLSLSPGK
light chain 2 (EMR2 arm, EMR2B361 Fab): QSVLTQPPSVFAAPGEKVTISCSGSSSNIGNDYVSWYQQLPGTAPKLLIYDNNKRPSGIPDRFSGSKSGTSATLGITGLQTGDEADYYCGTWDSSLSAGYVFGTGTKVTVLGQPKAAPSVTLFPPSSEELQANKATLVCLISDFYPGAVTVAWKADSSPVKAGVETTTPSKQSNNKYAASSYLSLTPEQWKSHRSYSCQVTHEGSTVEKTVAPTECS
notes: also called TPP000258023
**Q.** B1 was tested. Which EC50 [1] did it give?
**A.** Its EC50 is 15.2 nM.

**Q.** And the “Max (MFI)” value [1]?
**A.** The value was 250000 MFI.

**Q.** What about the EC50 [2] of the same binder?
**A.** The EC50 was 14.5 nM.

**Q.** What about the “Max % TRV19+” value [2] of the same binder?
**A.** The value was 9.15%.

**Q.** What about the EC50 [3] of the same binder?
**A.** The EC50 was 12.6 nM.

**Q.** What about the “Max (MFI)” value [3] of the same binder?
**A.** The value was 330000 MFI.

**Q.** And the Kd [4]?
**A.** The Kd was 0.186 nM.

B2: EMVBB7 (bispecific antibody, human IgG1, lambda, L234A L235A)
heavy chain 1 (Vb17 arm, B17B852-G34R-LH-spFv fused to Fc): B1 heavy chain 1 (Vb17 arm, B17B852-G34R-LH-spFv fused to Fc)
heavy chain 2 (EMR2 arm, EMR2B410 Fab): EVQLVESGGGLVQPGGSLRLSCAASGFTFSSYWMHWVRQVPGKGLVWVSRISSHGSSTSYADSVKGRFTISRDNAKNALYLQMNSLRAEDTAVYYCARGGNYYDSPYFDYWGQGTLVTVSSASTKGPSVFPLAPSSKSTSGGTAALGCLVKDYFPEPVTVSWNSGALTSGVHTFPAVLQSSGLYSLSSVVTVPSSSLGTQTYICNVNHKPSNTKVDKKVEPKSCDKTHTCPPCPAPEAAGGPSVFLFPPKPKDTLMISRTPEVTCVVVSVSHEDPEVKFNWYVDGVEVHNAKTKPREEQYNSTYRVVSVLTVLHQDWLNGKEYKCKVSNKALPAPIEKTISKAKGQPREPQVYTLPPSREEMTKNQVSLSCAVKGFYPSDIAVEWESNGQPENNYKTTPPVLDSDGSFFLVSKLTVDKSRWQQGNVFSCSVMHEALHNRFTQKSLSLSPGK
light chain 2 (EMR2 arm, EMR2B410 Fab): QSALTQPASVSGSPGQSITISCTGTSSDVGGYNYVSWYQQHPGKAPKLMIYEVSYRPSGISNRFSGSKSGDTASLTISGLQAEDEADYYCSSYTSSSTYVVFGGGTKVTVLGQPKAAPSVTLFPPSSEELQANKATLVCLISDFYPGAVTVAWKADSSPVKAGVETTTPSKQSNNKYAASSYLSLTPEQWKSHRSYSCQVTHEGSTVEKTVAPTECS
notes: also called TPP000258024
**Q.** With B2 as the binder, how does the Kd [4] read?
**A.** The Kd was 1.47 nM.

B3: EMVBB27 (bispecific antibody, human IgG1, kappa, L234A L235A)
heavy chain 1 (Vb17 arm, B17B21-LC-N33S Fab): QVQLQESGPGLVKPSETLSLTCTVSGYSITSGYFWNWIRQPPGKGLEWIGYISYDGSNNYNPSLKSRVTISRDTSKNQFSLKLSSVTAADTAVYYCASPSPGTGYAVDYWGQGTLVTVSSASTKGPSVFPLAPSSKSTSGGTAALGCLVKDYFPEPVTVSWNSGALTSGVHTFPAVLQSSGLYSLSSVVTVPSSSLGTQTYICNVNHKPSNTKVDKKVEPKSCDKTHTCPPCPAPEAAGGPSVFLFPPKPKDTLMISRTPEVTCVVVSVSHEDPEVKFNWYVDGVEVHNAKTKPREEQYNSTYRVVSVLTVLHQDWLNGKEYKCKVSNKALPAPIEKTISKAKGQPREPQVYTLPPSREEMTKNQVSLWCLVKGFYPSDIAVEWESNGQPENNYKTTPPVLDSDGSFFLYSKLTVDKSRWQQGNVFSCSVMHEALHNRFTQKSLSLSPGK
light chain 1 (Vb17 arm, B17B21-LC-N33S Fab): DIQMTQSPSSLSASVGDRVTITCRSSQSLVHSSGNTYLHWYQQKPGKAPKFLIYKVSNRFSGVPSRFSGSGSGTDFTLTISSLQPEDFATYYCSQSTHVPFTFGQGTKLEIKRTVAAPSVFIFPPSDEQLKSGTASVVCLLNNFYPREAKVQWKVDNALQSGNSQESVTEQDSKDSTYSLSSTLTLSKADYEKHKVYACEVTHQGLSSPVTKSFNRGEC
heavy chain 2 (EMR2 arm, EMR2B57-LH-spFv fused to Fc): QSALTQPASVSGSPGQSITISCTGTSSDVGGYNYVSWYQQHPGCAPKLMIYEVSYRPSGVSNRFSGSKSGNTASLTISGLQAEDEADYYCSSYTSSSTYVVFGGGTKLTVLGGGSGGSGGCPPCGGSGGEVQLVESGGGLVQPGGSLRLSCAASGFTFRSYWMHWVRQAPGKGLVWVSRISSGGSTTNYADSVKGRFTISRDNAKNTLYLQMNSLRAEDTAIYYCARGDNYYDSPYFDYWGCGTLVTVSSEPKSSDKTHTCPPCPAPEAAGGPSVFLFPPKPKDTLMISRTPEVTCVVVSVSHEDPEVKFNWYVDGVEVHNAKTKPREEQYNSTYRVVSVLTVLHQDWLNGKEYKCKVSNKALPAPIEKTISKAKGQPREPQVYTLPPSREEMTKNQVSLSCAVKGFYPSDIAVEWESNGQPENNYKTTPPVLDSDGSFFLVSKLTVDKSRWQQGNVFSCSVMHEALHNHYTQKSLSLSPGK
notes: also called EMVBB27.003; TPP000263194
**Q.** Which results are given for B3?
**A.** EC50 [1]: 296 nM; Max (MFI) [1]: 250000 MFI; EC50 [2]: 8.03 nM; Max % TRV19+ [2]: 6.62%; EC50 [3]: 301 nM; Max (MFI) [3]: 420000 MFI
